{"source": "patent US20210363215A1", "about": "(published 2021)", "biological_target": "T1, MAGE-B2 (peptide MB2-231) peptide on HLA-A*02:01 (human)", "T1 peptide": "GVYDGEEHSV", "assay": "multimer staining"}
{"binder": "MAGE-B2 TCR of SEQ ID NOs 3 and 5 (TCR, V domains shown) Valpha: GNSVTQMEGPVTLSEEAFLTINCTYTATGYPSLFWYVQYPGEGLQLLLKATKADDKGSNKGFEATYRKETTSFHLEKGSVQVSDSAVYFCALTNDYKLSFGAGTTVTVRA Vbeta: DAMVIQNPRYQVTQFGKPVTLSCSQTLNHNVMYWYQQKSSQAPKLLFHYYDKDFNNEADTPDNFQSRRPNTSFCFLDIRSPGLGDAAMYLCATSRGGRYNEQFFGPGTRLTVL", "values": [{"measurement": "binding result", "result": "recognises"}]}
{"binder": "MAGE-B2-231 C5 TCR (TCR, V domains shown) Valpha: KNQVEQSPQSLIILEGKNCTLQCNYTVSPFSNLRWYKQDTGRGPVSLTIMTFSENTKSNGRYTATLDADTKQSSLHITASQLSDSASYICVVISGFQKLVFGTGTRLLVSP Vbeta: EAGVVQSPRYKIIEKKQPVAFWCNPISGHNTLYWYRQNLGQGPELLIRYENEEAVDDSQLPKDRFSAERLKGVDSTLKIQPAELGDSAVYLCASSFPKQGSYNEQFFGPGTRLTVL", "values": [{"measurement": "binding result", "result": "recognises"}]}
